# Experimental data as given in US20140348834A1 (published 2014).
# What was measured:
# [1] = target: T1, human IL-17A/F (human, UniProt Q16552 24-155; Q96PD4 31-163); assay: SPR Biacore, captured binder
# T1 construct: Heterodimer of IL-17A and IL-17F, purified recombinant; also called HuIL-17A/F; Hu IL-17A/F
# T1 sequence (Q16552 24-155 limits assumed, chain 1 of 2): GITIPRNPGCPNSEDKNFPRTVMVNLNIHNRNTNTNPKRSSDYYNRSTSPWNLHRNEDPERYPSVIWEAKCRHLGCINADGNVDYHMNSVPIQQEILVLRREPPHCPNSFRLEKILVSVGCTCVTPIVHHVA
# T1 sequence (Q96PD4 31-163 limits assumed, chain 2 of 2): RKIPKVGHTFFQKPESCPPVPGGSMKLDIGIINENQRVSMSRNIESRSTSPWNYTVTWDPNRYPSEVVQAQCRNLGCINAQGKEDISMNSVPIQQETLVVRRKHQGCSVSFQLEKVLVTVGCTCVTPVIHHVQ
# Description: (§1) The binding of antibodies to purified recombinant human, cyno, rat, mouse, rabbit IL-17 and human IL-17A/F were determined by surface plasmon resonance-based measurements with a Biacore® 3000 instrument (Biacore® AB, Uppsala, Sweden) using running HBS-EP (10 mM HEPES [pH 7.4], 150 mM NaCl, 3 mM EDTA, and 0.005% surfactant P20) at 25° C. […] Approximately 5000 RU of goat anti-mouse or anti-human IgG (Fcγ) fragment specific polyclonal antibody (Pierce Biotechnology Inc, Rockford, Ill.) diluted in 10 mM sodium acetate (pH 4.5) was directly immobilized across a CM5 research grade biosensor chip using a standard amine coupling kit according to manufacturer's instructions and procedures at 25 μg/ml. Unreacted moieties on the biosensor surface were blocked with ethanolamine. Modified carboxymethyl dextran surface in flowcell 2 and 4 was used as a reaction surface. Unmodified carboxymethyl dextran without goat anti-mouse or anti-human IgG in flow cell 1 and 3 was used as the reference surface. For kinetic analysis, rate equations derived from the 1:1 Langmuir binding model were fitted simultaneously to association and dissociation phases of all eight injections (using global fit analysis) with the use of Biaevaluation 4.0.1 software. Purified antibodies were diluted in HEPES-buffered saline for capture across goat anti-mouse or anti-human IgG specific reaction surfaces. Antibodies to be captured as a ligand (25 μg/ml) were injected over reaction matrices at a flow rate of 5 μl/min. The association and dissociation rate constants, kon (unit M-1s-1) and koff (unit s-1) were determined under a continuous flow rate of 25 μl/min. Rate constants were derived by making kinetic binding measurements at ten different antigen concentrations ranging from 10 nM to 200 nM. The equilibrium dissociation constant (unit M) of the reaction between antibodies and recombinant purified IL-17 antigens was then calculated from the kinetic rate constants by the following formula: KD=koff/kon. Binding was recorded as a function of time and kinetic rate constants are calculated. In this assay, on-rates as fast as 10⁶ M⁻¹ s⁻¹ and off-rates as slow as 10⁻⁶ s⁻¹ can be measured.
# [2] = target: T2, human IL-17A (human, UniProt Q16552 24-155); assay: SPR Biacore, captured binder
# T2 construct: Purified recombinant; biotinylated in the ELISA; also called HuIL-17A; Hu IL-17A
# T2 sequence (Q16552 24-155 limits assumed): as the sequence (Q16552 24-155 limits assumed, chain 1 of 2) above
# Description: as §1
# [3] = target: cyno IL-17A (cynomolgus monkey, UniProt A0A2K5TTB0 24-155); assay: SPR Biacore, captured binder
# Description: as §1
# [4] = target: T3, human IL-17A (human, UniProt Q16552 24-155); assay: cell-based or functional assay
# T3 sequence (Q16552 24-155 limits assumed): as the sequence (Q16552 24-155 limits assumed, chain 1 of 2) above
# [5] = target: T3, human IL-17A; assay: ELISA, captured antibody, serially diluted biotin-IL-17 (Example 1.5.1)
# [6] = target: T4, human IL-17A (human, UniProt Q16552 24-155); assay: hIL17A ELISA
# T4 construct: Recombinant; biotinylated in the ELISA; also called hIL-17; hIL17A
# T4 sequence (Q16552 24-155): as the sequence (Q16552 24-155 limits assumed, chain 1 of 2) above
# Description: The following protocol is used to characterize the binding of IL-17 antibodies to human IL-17 by enzyme-linked immunosorbent assay (ELISA). […] Coat ELISA plate with 50 μl per well of Goat anti Mouse IgG-Fc at 2 ug/ml, overnight at 4° C. […] Wash plate 3×PBS/Tween. […] Add 50 μl Mab diluted to 1 μg/ml in PBS/0.1% BSA to appropriate wells. Incubate 1 hr at room temperature (RT). […] Wash plate 3× with PBS/Tween. […] Add 50 μl of serial diluted biotin-IL17 (human IL-17, IL-17A/F, cyno IL-17) to appropriate wells. Incubate 1 hr at room temperature (RT). […] Wash plate 3× with PBS/Tween. […] Incubate 1 hr at RT. […] Wash plate 3× with PBS/Tween. […] Stop reaction with 50 μl 2N H₂SO₄. […] Read absorbance at 450 nm.
# [7] = target: T5, mouse IL-17A (mouse, UniProt Q62386 26-158, limits assumed); assay: SPR (Biacore 3000), antibody captured by anti-Fc, antigen in solution;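 further: purified recombinant IL-17 antigens flowed over captured antibodies in HBS-EP buffer, global Langmuir one-to-one fit of association and dissociation phases, KD derived from koff over kon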
# T5 construct: Purified recombinant protein in SPR; also called MuIL-17A; murine IL-17A
# T5 sequence (looked up): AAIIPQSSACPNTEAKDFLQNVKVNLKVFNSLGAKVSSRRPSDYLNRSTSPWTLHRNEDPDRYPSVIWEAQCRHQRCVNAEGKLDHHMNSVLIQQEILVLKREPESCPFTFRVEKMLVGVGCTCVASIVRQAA
# Description: as §1
# [8] = target: T6, human IL-17A/F (human, UniProt Q16552 24-155; Q96PD4 31-163); assay: as above
# T6 construct: Recombinant; biotinylated in the ELISA; also called hIL-17A/F; HuIL-17A/F
# T6 sequence (Q16552 24-155, chain 1 of 2): as the sequence (Q16552 24-155 limits assumed, chain 1 of 2) above
# T6 sequence (Q96PD4 31-163, chain 2 of 2): as the sequence (Q96PD4 31-163 limits assumed, chain 2 of 2) above
# Description: as §1
# [9] = target: T4, human IL-17A; assay: as above
# Description: as §1
# [10] = target: T7, rat IL-17A (rat, UniProt Q61453 18-150, limits assumed); assay: as above
# T7 construct: Purified recombinant protein in SPR
# T7 sequence (looked up): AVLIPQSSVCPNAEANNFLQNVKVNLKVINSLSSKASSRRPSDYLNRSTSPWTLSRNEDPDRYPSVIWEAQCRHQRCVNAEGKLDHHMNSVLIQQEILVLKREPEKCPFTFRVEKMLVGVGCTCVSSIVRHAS
# Description: as §1
# [11] = target: T8, cynomolgus monkey IL-17A (cynomolgus monkey, UniProt A0A2K5TTB0 24-155); assay: as above
# T8 construct: biotinylated in the ELISA; also called cyno IL-17; Cyno IL-17A
# T8 sequence (A0A2K5TTB0 entry or part of it): as the sequence (Q16552 24-155 limits assumed, chain 1 of 2) above, with T3A, P8S, N34S, I77V, N78K, P104R counted along it
# Description: as §1
# Sequence of cyno IL-17A (A0A2K5TTB0 entry or part of it): as the sequence (Q16552 24-155 limits assumed, chain 1 of 2) above, with T3A, P8S, N34S, I77V, N78K, P104R counted along it
Binder,Kd [1] [nM],koff [1] [s⁻¹],kon [1] [M⁻¹ s⁻¹],Kd [2] [nM],koff [2] [s⁻¹],kon [2] [M⁻¹ s⁻¹],Kd [3] [nM],koff [3] [s⁻¹],kon [3] [M⁻¹ s⁻¹],EC50 [5] [nM],also measured
"IL17-TN-K7-B6 (antibody, V domains shown, Fully human antibody) VH: EVQLVQSGAEVKKPGESLKISCKASGGSFRSYGISWVRQAPGQGLEWMGGITPILGTANYAQKFQGRVTITADESTTTAYMELSGLTSDDTAVYYCAREPNDFWNGYYTTHHFDYWGQGTPVTVSS VL: DVVMTQSPDFQSVTPKEKVTITCRASQNIGSALHWYQQKPDQSPKLLIKYASQSISGVPSRFSGSGSGTDFTLTINGLEAEDAGTYYCHQSTSLPHTFGQGTKLDIKR",21.9,0.000175,7980,0.84,1.47e-05,17500,0.992,2.51e-05,25300,,
"IL17-G9-3 (antibody, V domains shown) VH: EVQLLESGGGVVQPGRSLRLSCAASGFIFSNYGMHWVRQAPGKGLEWVAVISYDGSNKYYADSVKGRFTISRDNSKNTLYLEMNSLRPEDTAVYYCAKVGASGDYYYSYGLDVWGQGTTVTVSS VL: QSVLTQPPSASGTPGQTVSISCSGRNSNIGSHYVHWYQQVPGAAPKLLMYDFGLRPSGVPDRFSVSQSGTSASLAISGLQSEDEADYYCATWDDMLGGYVFGTGTKVTVLG",,,,,,,,,,0.05,"Potency (pM), IL-17-driven IL-6 production in HS27 cells [4]: 334 pM"
"IL17-G9-M1 (antibody, V domains shown) VH: EVQLLESGGGVVQPGRSLRLSCAASGFIFSNYGMHWVRQAPGKGLEWVAVISYDGGYKYYADSVKGRFTISRDNSKNTLYLEMNSLRPEDTAVYYCAKLSLSGDYYYSYGFDGWGQGTTVTVSS VL: QSVLTQPPSASGTPGQTVSISCSGSKSNIGSHYVHWYQQVPGAAPKLLMYDFGQRPSGVPDRFSGSQSGTSASLAISGLQSEDEADYYCGTWDDWLGGYVFGTGTKVTVLG",0.244,3.95e-05,162000,0.00322,1e-06,311000,0.00265,1e-06,377000,,
"IL17-G9-5 (antibody, V domains shown) VH: EVQLLESGGGVVQPGRSLRLSCAASGFIFRNYGMHWVRQAPGKGLEWVAVIAYDGSRQYYSDSVKGRFTISRDNSKNTLYLEMNSLRPEDTAVYYCAKVGASGDYYYSYGLDLWGQGTTVTVSS VL: QSVLTQPPSASGTPGQTVSISCSGRQSNIGRHYVDWYQQVPGAAPKLLMYYDSIRPSGVPDRFSGSQSGTSASLAISGLQSEDEADYYCGMWDDSLAGYVFGSGTKVTVLG",,,,,,,,,,0.12,"Potency (pM), IL-17-driven IL-6 production in HS27 cells [4]: 310 pM"
"IL17-G9-4 (antibody, V domains shown, converted into IgG) VH: EVQLLESGGGVVQPGRSLRLSCAASGFIFSNYGMHWVRQAPGKGLEWVAVISYDGSNKYYADSVKGRFTISRDNSKNTLYLEMNSLRPEDTAVYYCAKVGASGDYYYSYGLDVWGQGTTVTVSS VL: QSVLTQPPSASGTPGQTVSISCSGRQSNIGRHYVDWYQQVPGAAPKLLMYYDSIRPSGVPDRFSGSQSGTSASLAISGLQSEDEADYYCATWDDSLGGYVFGSGTKVTVLG",0.00424,1e-06,236000,0.00469,1e-06,213000,0.00377,1e-06,265000,,
"IL17-G9-2 (antibody, V domains shown) VH: EVQLLESGGGVVQPGRSLRLSCAASGFIFRNYGMHWVRQAPGKGLEWVAVISYDGSNKYYADSVKGRFTISRDNSKNTLYLEMNSLRPEDTAVYYCAKVGASGDYYYSYGLDVWGQGTTVTVSS VL: QSVLTQPPSASGTPGQTVSISCSGSNSNIGRHPVDWYQQVPGAAPKLLIYYDDQRPSGVPDRFSGSQSGTSASLAISGLQSEDEADYYCATWDDSLGGYVFGSGTKVTVLG",0.437,8.66e-05,198000,< 0.00433,< 1e-06,231000,< 0.0027,< 1e-06,371000,,
"IL17-G9-M2 (antibody, V domains shown, converted into IgG) VH: EVQLLESGGGVVQPGRSLRLSCAASGFIFSNYGMHWVRQAPGKGLEWVAVISYDGSNKYYADSVKGRFTISRDNSKNTLYLEMNSLRPEDTAVYYCAKVGASGDYYYSYGLDVWGQGTTVTVSS VL: QSVLTQPPSASGTPGQTVSISCSGHNSNIGYHYVHWYQQVPGAAPKLLIYGDGWRPSGVPDRFSGSQSGTSASLAISGLQSEDEADYYCGTWDDWLGGYVFGTGTKVTVLG",0.0103,1.41e-06,137000,0.00826,2.32e-06,281000,< 0.00245,< 1e-06,408000,,
"IL17-h5C5.18 (antibody, V domains shown, IgG; constant regions not specified; also called h5C5.18 (VH.1b-Vk.1c)) VH: EVQLVQSGAEVKKPGASVKVSCKASGYTFTDYEFHWVRQAPGQGLEWIGVIHPGNGGTAYNQNFRDRATLTADKSTSTAYMELSSLRSEDTAVYYCTRFLTYEGYFDYWGQGTLVTVSS VL: NIVMTQSPSSLSASVGDRVTITCKASQSVSIDVGWFQQKPGKSPKLLIYHASNRYTGVPSRFSGSGSGTDFTFTISSLQPEDFATYFCQQDYSSPYTFGQGTKLEIKR",,,,,,,,,,,EC50 [6]: 0.03 nM; Kd [7]: 2.91 nM; koff [7]: 0.0005 s⁻¹; kon [7]: 172000 M⁻¹ s⁻¹; Kd [8]: 1.31 nM; koff [8]: 0.00101 s⁻¹; kon [8]: 772000 M⁻¹ s⁻¹; Kd [9]: 0.521 nM; koff [9]: 0.000493 s⁻¹; kon [9]: 947000 M⁻¹ s⁻¹; Kd [10]: 9.15 nM; koff [10]: 0.00421 s⁻¹; kon [10]: 460000 M⁻¹ s⁻¹; Kd [11]: 0.437 nM; koff [11]: 0.000254 s⁻¹; kon [11]: 581000 M⁻¹ s⁻¹
"IL17-B6-46 (antibody, V domains shown, also called pJP253 B6.1 #46VH / pJP254 B6.1 #46Vk) VH: EVQLVQSGAEVKKPGESLKISCKASGGSFISYGISWVRQAPGQGLEWMGGITHFFGSTDYAQKFQGRVTITADESTTTAYMELSGLTSDDTAVYYCAREPNEFWNGYYTTHDFDSWGQGTTVTVSS VL: EIVLTQSPDFQSVTPKEKVTITCRASQAIGSELHWYQQKPDQSPKLLIKYASYSVSGVPSRFSGSGSGTDFTLTINGLEAEDAGTYYCHQSASLPYTFGQGTKVDIK",,,,,,,,,,0.14,"Potency (pM), IL-17-driven IL-6 production in HS27 cells [4]: 59 pM"
"IL17-B6-18 (antibody, V domains shown, also called pJP251 B6.1 #18VH / pJP250 B6.1 #18Vk) VH: EVQLVQSGAEVKKPGESLKVSCKASGGRFRTYGISWVRQAPGQGLEWMGGITNFFGWTDYAQKFQGRVTITADESTTTAYMELSGLTSDDTAVYYCARVPNEFWNGYYATDYFDNWGQGTTVTVSS VL: EIVLTQSPDFQSVTPKEKVTITCRASQEIGASLHWYQQKPDQSPKLLIKYASHSASGVPSRFSGSGSGTDFTLTINSLEAEDAATYYCHQSDGLPYTFGQGTKVDIK",,,,,,,,,,0.16,
"IL17-B6-16 (antibody, V domains shown) VH: EVQLVQSGAEVKMPGSSLKISCKASGGSFRGYGISWVRQAPGQGLEWMGGITPFFGWADYAQKFQGRVTITADESTTTAYMELSGLTSDDTAVYYCARDPNEFWNGYYDTHHFDYWGQGTTVTVSS VL: EIVLTQSPDFQSVTPKEKVTITCRASQDIGSALHWYQQKPDQSPKLLIKYASHSVSGVPSRFSGSGSGTDFTLTINGLEAEDAGTYYCHQSDILPHTFGPGTKVDIK",0.0164,6.57e-05,4e+06,0.00794,3e-05,3.78e+06,0.00483,4.48e-05,9.27e+06,,
"IL17-B6-15 (antibody, V domains shown) VH: EVQLVQSGAEVKKPGESLKISCKASGGSFSGYGTSWVRQAPGQGLEWMGGITHFFGAVDYAQKFQGRVTITADESTTTAYMELSGLTSDDTAVYYCARDPNEFWNGYYATHDFDYWGQGTTVTVSS VL: EIVLTQSPDFQSVTPKEKVTITCRASQNIGAELHWYQQKPDQSPKLLIKYASHSISGVPSRFSGSGSGTDFTLTINGLEAEDAGTYYCHQTDRLPYSFGPGTKVDIK",0.00647,5.71e-05,8.82e+06,0.0073,6.02e-05,8.25e+06,0.00401,5.5e-05,1.37e+07,,
"IL17-LN-K9-F5 (antibody, V domains shown, Fully human monoclonal antibody from mRNA display) VH: EVQLVQSGAEVKNPGASVKVSCKVSGSRLSDLAMHWVRQAPGKGPEWMGGFDPDEGETVYAQNFQGRVSMTEDTSSDTAYMELNSLRSEDTAVYYCATIRPWLGGAYYFDNWGQGTLVTVSS VL: ETTLTQSPAFMSATPGDKVNISCKASQDIDDDMNWYQQKPGEAALFIIQEATTLVPGIPPRFSGSGYGTDFTLTVNNIQSEDAAYYFCLQHDSFPYTFGQGTKLEIKR",,,,,,,,,,7.45,
